Test results: the RNAGym collection of RNA variant scans (doi:10.1073/pnas.2313332121)

B1: TPR t1 (parent)
chain: GACCAAUCUGCCCUCAGAGCUCGAGAACAUCUUCGGAUGCAGAGGAGGCAGGCUUCGGUGGCGCGAUAGCGCCAACGUCCUCAACCUCCAAUGCAUCCCACCACAUGAUGAUGCCUGAAGAGCCUUGGUUUUUUG

Variants of: B1
Assay: polymerase ribozyme fitness, log enrichment relative to wild type (log ratio); higher = more active; in vitro selection for triplet polymerase activity
Procedure, shortened: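 PCR was used to build mutant libraries for each subunit of a heterodimeric triplet polymerase ribozyme, which were then transcribed. A single in vitro selection round, in triplicate, used a frozen incubation at −7 °C and recovered extended constructs by gel excision, streptavidin beads and RT-PCR. Fitness is the logarithm of genotype enrichment relative to wild-type enrichment, averaged over replicates with inverse-variance weights. The logarithm is base 2, and after Illumina sequencing only genotypes with ≥10 input reads and ≥1 read per output were kept.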

Variant	polymerase ribozyme fitness (log ratio)
U38A U130C	-0.259
U38G G69C C86U C115A	-3.28
A37G C56U A100U C102A U116A	-6.14
A37U A50U G63U G120U U126A U130A	-5.22
A37U G52U C64U C123A C124A	0.273
A37G C72U	-0.261
G39A A46U U87A U106A	0.825
U38A A90U	-2.22
G39A A74U C82A	-0.903
A37U G60U	-1.39
G39A C102A	-2.49
G39A C40U C72G	-2.72
A37U G113A C123U	-2.5
A37U G52C G71A C115U U132C	-3.24
U38G G39U U54G U87A G113C	-3.28
U38G U125G	-1.35
A37G A43U G47U C101G	-4.64
U38G C53G	-1.52
G39A A46U G61A U129A	-2.38
A37U G48U G57U G60U U129C	-1.31
U38C C70A	-1.91
A37U G42C C49G C85U G93U C102U U133G	-5.53
G39A C70G G120C G122U	-3.09
A37U C101G G128C	-3.4

Variant	polymerase ribozyme fitness (log ratio)
A37U G57C G63A	-1.29
A37U A50C C124G	1.16
U38G C104A	-1.93
G39A C86G	-1.11
G39A C49G G61A C89U C102G	-7.76
A37U C40G G63A A66G C82A U109G	-6.22
A37U C72A U106A G135U	-0.59
U38C C123A	-0.222
A37U G44A C101A A111G	-1.68
A37U C49G G77U G120C	0.00604
A37G C86A	-1.81
U38G C62U C86U C115A	-2.04
A37U G110U	-1.34
A37U G110A	-1.04
A37U A74G A90C	-2.26
A37U U132C	-1.09
A37G U59C A103U G110C G122A	-6.29
G39A A74G	-0.641
A37U U54C G60U	1.01
A37U C70A U109A	-6.47
G39A A43G C73G U129G	-5.71
A37U G48A A105U A111U	-6.33
A37G G61C	-1.44
A37G G61A	-0.324

Variant	polymerase ribozyme fitness (log ratio)
A37G G61U	-1.33
A37G A100U	-1.32
A37U U112G	-1.14
A37G G51C G77C C80A G120C G128C	-5.93
A37U G42C G57C C70U U129A	-5
A37G C64U U78C C86G	-4.56
U38A A43C A83U C85A	-5.42
A37U G117A	-1.4
A37U A50C G61A G117C U130C	-4.59
A37U G117C G122U	-5.5
A37G G69U C89G	-2.64
A37U A41U C79G	-4.3
U38C G39U	-1.44
G39A C73A	-0.374
U38A G60U C62A C115G	-6.12
A37U G77A A111C	0.0508
A37U G60U G113U	-3.06
G39A A50U A118U	-0.352
U38C C53A G93C G122A C123U	-2.19
A37U U59A G61C G93U A95G U130G	-5.82
A37G U131G	-1.11
A37U G77A A90U C123U	-0.717
A37G G52A G61U	-3.07
A37U G69A A83U U96A C124U U131A	-1.63

Variant	polymerase ribozyme fitness (log ratio)
U38G C70U C80U G120C	-1.36
U38G G51C	-6.44
U38G C64U	-1.09
G39A C40U	-1.56
U38C C56U C98U G110U	-5.51
U38G G45U G47A C73U	-5.77
G39A G42U C80U C124U	-1.59
U38G C56U C79G U81G U96C C104A G110C	-5.98
G39A C53G G57C	0.135
A37U C72A C73U G117U C124A	-1.66
A37G G57A G110C	-5.28
U38A C40U C70U C101U C123G	-1.32
A37G G69A	-2.42
U38A C49G G60U G61A U116C U125A	-4.75
A37U G52U C62A	-2.78
U38A G69C	-2.61
A37U G61U C114A U130A	-1.52
U38G C89A	-2.14
A37U C56G C72A	-2.62
A37U G44A G122A U130C U131A G135U	-1.23
A37U G45C A46C U78A	-2.59
U38C U59G A95C	-0.718
U38A C53G C88G G120A C123G	-1.3
A37U C82U G128C U130C	-2.33

Variant	polymerase ribozyme fitness (log ratio)
A37U C49A C86U G117C	-4.27
A37U C101A C115U G127C	-4.26
U38A G63A G93U	-4.96
A37U C80U C101A	-2.69
A37U C89U A108G	-3.18
U38G C80U C86U	-1.86
A37U G47C C56G C104A	-3.66
A37G G61A C101A G127A	-1.91
A37U G47A U116G	-3.09
G39A G42U C49A G52A	-4.68
A37U G122A	-1.18
U38G C49U	-2.12
A37G A68G A111C C124G	-3.95
A37U G71A A84C C85U U96A	-0.538
U38A G61C	-2.48
G39A A43G G127U	-2.87
U38G C56G G57C G77U	-1.18
A37U C62U U96G	-0.183
U38G G57U C62A A91U C97A G117A G120C	-7.34
U38G A83C	-1.25
A37G G120A	0.248
A37U G69U A118C	-2.82
A37G C62A C85U	-5.14
G39A C70U A118G G122A	-0.719

Variant	polymerase ribozyme fitness (log ratio)
G39A C72U U81G U96A G113C C124U	-6.86
G39A A43U C70U C82U G113C U132C	-3.27
U38G C62G C86A C124A	-2.75
U38A G57A U116A G120A	-4.1
A37C U96G	0.787
A37U C62G	-3.59
G39A A118U	0.354
G39A A43U C86G	-1.99
U38C G117U G120A	-2.23
G39A A84C	-1.2
U38G G45C G69C C101A A119U	-7.2
U38A G60A C79U	-1.22
G39A A43U G63U C86G	-4.39
U38C C101U	-1.08
A37G A111C C124G	0.322
U38A C82A C114A G120C A121C U132C	-3.34
A37G G63U U81A	-2.09
U38G C56A G69U	-1.9
U38A U59G A83C	-1.75
A37U C40A C94U	-4.04
U38A C53G C56U G110A	-2.64
A37U G39C G57C G61A U106C G113C	-4.04
A37G G52C A100C C104U	-2.8
A37U C94U G117A	-2.17

Variant	polymerase ribozyme fitness (log ratio)
U38A G52U C62U U78G A90G	-2.07
A37U G122A U130C U131A G135U	-1.18
A37G C80U	-2.46
G39A A43U C114U	-2.78
U38A G52A U55G G128A	-2.73
U38A G57A G63A	-4.08
A37U G45U C56U C70G C102G G113A U125A	-7.38
A37U G47C C49U	-2.66
U38A C62G	-3.68
U38G G93C A121U U133G	-1.6
U38A C80U	-1.43
A37G G69U C73U U87C C104A U131G	-4.34
U38G C72G	-0.641
A37U A50G U54G	-0.818
A37U U133G	-1.2
A37U C70A C99U	-5.64
U38A C40U	-1.9
U38G G47C C62U C85A	-5.9
U38G G113U U125G	-3.75
A37G G63U C101G C104G C114U G128A	-4.99
A37U C62A U92C	-2.86
U38G U55C G61A A91C A108C G110U C124A U126C	-6.93
U38G C124U	0.564
